These results are taken from patent publication US20240150494A1.

Assay [1] has as its target G2-Rituximab (galactosylated afucosylated glycoform of rituximab) (human). The assay can be described thus: SPR, 256 to 8 nM in 2-fold steps. Background: In SPR one partner is held on a chip, and binding of the other changes the refractive index at the surface.
Assay [2] concerns the target G2F-Rituximab (galactosylated fucosylated glycoform of rituximab) (human). The assay can be described thus: SPR, 256 to 8 nM in 2-fold steps.

As for “tetrameric FcγRIIIA (from UniProt P08637 17-208) (receptor)”, in assay [1], the KD1 was 29.9 nM and the KD2 came to 2.3 nM. In assay [2], this substance returned a KD1 of 55.2 nM and a KD2 of 2.29 nM.
